Reference: EP4361176A1
Changes are numbered by the printed parent chain.

B1: 04H1654-KT462/04L1610-lam1//04H1656-HT445/04L1610-lam1 (antibody, human IgG1, lambda)
heavy 1: QVQLVESGGGVVQPGGSLRLSCAASGFTFSSKTMNWVRQAPGKGLEWVSSISTQSHYIYYARSVRGRFTISRDNAKNSLYLQMNSLRAEDTAVYYCARYGKREDMLWVFDYWGQGTLVTVSSASTKGPSVFPLAPSSKSTSGGTAALGCLVKDYFPEPVTVSWNSGALTSGVHTFPAVLQSSGLYSLSSVVTVPSSSLGTQTYICNVNHKPSNTKVDKRVEPKSCDKTHTCPPCPAPEFQWGPMVFLFPPKPKDVLMISRTPEVTCVVVDVSDEEPEVKFNWYVDGVEVHNAKTKPREEQYNATYRVVSVLPVLHQDWLNGKEYKCKVSNDALPAPIEKTISKAKGQPREPQVYTLPPSRKEMTKNQVSLTCLVKGFYPSDIAVEWESNGQPENNYKTTPPVLDSDGSFFLYSKLTVDKSRWQQGNVFSCSVMHEALHNHYTQKSLSLSP
heavy 2: QVQLVESGGGVVQPGGSLRLSCAASGFTFSSKTMNWVRQAPGKGLEWVSSISTQSHYIYYAESVRGRFTISRDNAKNSLYLQMNSLRAEDTAVYYCARYGAREDMLWVFDYWGQGTLVTVSSASTKGPSVFPLAPSSKSTSGGTAALGCLVKDYFPEPVTVSWNSGALTSGVHTFPAVLQSSGLYSLSSVVTVPSSSLGTQTYICNVNHKPSNTKVDKRVEPKSCDKTHTCPPCPAPELLAGPSVFLFPPKPKDVLMISRTPEVTCVVVDVSHEEPEVKFNWYVDGVEVHNAKTKPREEQYNATYRVVSVLPVLHQDWLNGKEYKCKVSNDALPKPDEETISKAKGQPREPQVYTLPPSREEMTKNQVSLTCLVKGFYPSDIAVEWESNGQPENNYKTTPPVLDSDGSFFLYSKLTVDKSRWQQGNVFSCSVMHEALHNHYTQESLSLSP
light: QSALTQPPSASGSPGQSVTISCEGPSTGVGDYNWVHWYQQHPGKAPKLMIYFTSKKPSGVPDRFSGSKSGNTASLTVSGLQAEDEADYYCQTYAAPLGPMFGGGTKLTVLGQPKAAPSVTLFPPSSEELQANKATLVCLISDFYPGAVTVAWKADSSPVKAGVETTTPSKQSNNKYAASSYLSLTPEQWKSHRSYSCQVTHEGSTVEKTVAPTECS
B2: 04H1654-KT481/04L1610-lam1//04H1656-HT498/04L1610-lam1 (antibody)
heavy 1: B1 heavy 1 with I337E, N439A, Y441T, Q443R, S445E
heavy 2: B1 heavy 2 with K335A, D337E, N439A, Y441T, Q443R, S445E
light: B1 light
B3: 04H1654-KT462/04L1612-lam1//04H1656-HT445/04L1612-lam1 (antibody, human IgG1, lambda)
heavy 1: B1 heavy 1
heavy 2: B1 heavy 2
light: B1 light with N33T, W34Y
B4: 04H1654-KT461/04L1612-lam1//04H1656-HT443/04L1612-lam1 (antibody, human IgG1, lambda)
heavy 1: B1 heavy 1 with I337E
heavy 2: B1 heavy 2 with K335A, D337E
light: B1 light with N33T, W34Y
B5: 04H1654-KT473/04L1612-lam1//04H1656-HT482/04L1612-lam1 (antibody)
heavy 1: B1 heavy 1 with N439A, Y441T, Q443R, S445E
heavy 2: B1 heavy 2 with N439A, Y441T, Q443R, S445E
light: B1 light with N33T, W34Y
B6: 04H1654-KT473/04L1610-lam1//04H1656-HT482/04L1610-lam1 (antibody)
heavy 1: B1 heavy 1 with N439A, Y441T, Q443R, S445E
heavy 2: B1 heavy 2 with N439A, Y441T, Q443R, S445E
light: B1 light
B7: 04H1654-KT461/04L1610-lam1//04H1656-HT443/04L1610-lam1 (antibody, human IgG1, lambda)
heavy 1: B1 heavy 1 with I337E
heavy 2: B1 heavy 2 with K335A, D337E
light: B1 light
B8: 04H1654-KT481/04L1612-lam1//04H1656-HT498/04L1612-lam1 (antibody)
heavy 1: B1 heavy 1 with I337E, N439A, Y441T, Q443R, S445E
heavy 2: B1 heavy 2 with K335A, D337E, N439A, Y441T, Q443R, S445E
light: B1 light with N33T, W34Y
B9: 04H1389-Ks473/04L1615-k0MT//04H1389-Hs482/04L1615-k0MT (antibody)
heavy 1: EVQLVESGGGLVKPGGSLRLSCAASGFTFSSKTMNWVRQAPGKGLEWVSSISTQSHYIYYAESVKGRFTISRDNAKNSLYLQMNSLRAEDTAVYYCARYGKREDMLWVFDYWGQGTLVTVSSASTKGPSVFPLAPSSKSTSGGTAALGCLVKDYFPEPVTVSWNSGALTSGVHTFPAVLQSSGLYSLSSVVTVPSSSLGTQTYICNVNHKPSNTKVDKRVEPKSCDKTHTCPPCPAPEFQWGPMVFLFPPKPKDVLMISRTPEVTCVVVDVSDEEPEVKFNWYVDGVEVHNAKTKPREEQYNATYRVVSVLPVLHQDWLNGKEYKCKVSNDALPAPIEKTISKAKGQPREPQVYTLPPSREEMTKNQVSLWCLVKGFYPSDIAVEWESNGQPENNYKTTPPVLDSDGSFFLYSKLTVDKSRWQQGNVFSCSVMHEALHAHTTRKELSLSP
heavy 2: EVQLVESGGGLVKPGGSLRLSCAASGFTFSSKTMNWVRQAPGKGLEWVSSISTQSHYIYYAESVKGRFTISRDNAKNSLYLQMNSLRAEDTAVYYCARYGKREDMLWVFDYWGQGTLVTVSSASTKGPSVFPLAPSSKSTSGGTAALGCLVKDYFPEPVTVSWNSGALTSGVHTFPAVLQSSGLYSLSSVVTVPSSSLGTQTYICNVNHKPSNTKVDKRVEPKSCDKTHTCPPCPAPELLAGPSVFLFPPKPKDVLMISRTPEVTCVVVDVSHEEPEVKFNWYVDGVEVHNAKTKPREEQYNATYRVVSVLPVLHQDWLNGKEYKCKVSNDALPKPDEETISKAKGQPREPQVYTLPPSREEMTKNQVSLSCAVKGFYPSDIAVEWESNGQPENNYKTTPPVLDSDGSFFLVSKLTVDKSRWQQGNVFSCSVMHEALHAHTTRKELSLSP
light: DIVMTQSPLSLPVTPGEPASISCQGPSTGVGDYNYVHWYQQKPGQAPRLLIYFTSKKPSGVPDRFSGSGSGTDFTLKISRVEAEDVGVYYCQTYAAPLGPMFGQGTKLEIKRTVAAPSVFIFPPSDEQLKSGTASVVCLLNNFYPREAKVQWKVDNALQSGNSQESVTEQDSKDSTYSLSSTLTLSKADYEKHKVYACEVTHQGLSSPVTKSFNRGEC
B10: 04H1389-Km481/04L1615-k0MT//04H1389-Hm498/04L1615-k0MT (antibody)
heavy 1: B9 heavy 1 with I337E, Y354C
heavy 2: B9 heavy 2 with K335A, D337E, E361C
light: B9 light
B11: 04H1389-Km461/04L1615-k0MT//04H1389-Hm443/04L1615-k0MT (antibody, human IgG1, kappa)
heavy 1: B9 heavy 1 with I337E, Y354C, A439N, T441Y, R443Q, E445S
heavy 2: B9 heavy 2 with K335A, D337E, E361C, A439N, T441Y, R443Q, E445S
light: B9 light
B12: 04H1389-Km462/04L1615-k0MT//04H1389-Hm445/04L1615-k0MT (antibody, human IgG1, kappa)
heavy 1: B9 heavy 1 with Y354C, A439N, T441Y, R443Q, E445S
heavy 2: B9 heavy 2 with E361C, A439N, T441Y, R443Q, E445S
light: B9 light
B13: 04H1389-Ks462/04L1615-k0MT//04H1389-Hs445/04L1615-k0MT (antibody, human IgG1, kappa)
heavy 1: B9 heavy 1 with A439N, T441Y, R443Q, E445S
heavy 2: B9 heavy 2 with A439N, T441Y, R443Q, E445S
light: B9 light
B14: 04H1389-Ks461/04L1615-k0MT//04H1389-Hs443/04L1615-k0MT (antibody, human IgG1, kappa)
heavy 1: B9 heavy 1 with I337E, A439N, T441Y, R443Q, E445S
heavy 2: B9 heavy 2 with K335A, D337E, A439N, T441Y, R443Q, E445S
light: B9 light

target: human FcγRIIb extracellular domain with C-terminal His-tag (human) (UniProt P31994); assay: SPR; binding amount / that of 04H1637-G1m/04L1610-lam1
Sequence (P31994 43-217): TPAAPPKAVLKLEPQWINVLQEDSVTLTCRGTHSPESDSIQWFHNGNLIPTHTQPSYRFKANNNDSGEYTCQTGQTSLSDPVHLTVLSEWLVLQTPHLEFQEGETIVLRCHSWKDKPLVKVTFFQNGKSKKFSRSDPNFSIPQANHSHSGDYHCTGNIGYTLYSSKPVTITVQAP

Point of comparison: B8, Relative binding amount 2.8. Against it:
- B1 — higher, 3.1
- B2 — lower, 2.7
- B3 — higher, 3.4
- B4 — higher, 3.1
- B5 — higher, 3.2
- B6 — higher, 3.2
- B7 — higher, 3.1

target: human FcγRIIb extracellular domain with C-terminal His-tag (human) (UniProt P31994); assay: SPR; binding amount / that of 04H1389-G1m/04L1615-k0MT

Point of comparison: B12, Relative binding amount 2.6. Against it:
- B9 — lower, 2.3
- B10 — lower, 1.9
- B11 — lower, 2.1
- B13 — the same, 2.6
- B14 — lower, 2.1

target: human FcγRIIb extracellular domain with C-terminal His-tag (human) (UniProt P31994); assay: SPR (Biacore T200), FcγRIIb, amount bound per unit captured antibody

Point of comparison: B12, Binding amount 0.029. Against it:
- B9 — lower, 0.026
- B10 — lower, 0.021
- B11 — lower, 0.024
- B13 — higher, 0.03
- B14 — lower, 0.024

target: human FcγRIIb extracellular domain with C-terminal His-tag (human) (UniProt P31994); assay: SPR (Biacore T200), FcγRIIb 1000 nM, amount bound per unit captured antibody

Point of comparison: B7, Binding amount 0.025. Against it:
- B1 — the same, 0.025
- B2 — lower, 0.022
- B3 — higher, 0.028
- B4 — the same, 0.025
- B5 — higher, 0.026
- B6 — higher, 0.026
- B8 — lower, 0.022
